According to publication PMC7264293 (2020):

molecular target: T1, WIPI3-Δloop (human, UniProt Q5MNZ6 1-344, Blade 2 B-C loop (75-80) deleted | Blade 6 C-D loop (264-281) deleted); assay: ITC
T1 sequence (Q5MNZ6 other isoform, or with tags, fused parts or gaps with the stated changes): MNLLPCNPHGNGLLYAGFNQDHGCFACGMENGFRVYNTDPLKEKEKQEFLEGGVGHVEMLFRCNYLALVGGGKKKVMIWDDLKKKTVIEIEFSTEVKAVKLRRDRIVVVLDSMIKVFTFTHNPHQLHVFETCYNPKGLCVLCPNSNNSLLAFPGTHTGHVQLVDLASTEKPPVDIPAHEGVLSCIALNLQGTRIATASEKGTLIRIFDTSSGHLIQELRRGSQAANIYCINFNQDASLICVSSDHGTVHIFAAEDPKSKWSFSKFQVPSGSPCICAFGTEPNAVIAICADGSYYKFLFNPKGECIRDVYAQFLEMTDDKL

Kd [µM] | Binder
48.9 | PRDGEPVVTQLHPGPIVQRDGYFSRPIGSTD [GB1-tagged WIR-peptide V1391Q]
391 | PRDGEPVVTQLHPGPIVVRDGAFSRPIGSTD [GB1-tagged WIR-peptide Y1395A]
82 | PRDGEPVQTQLHPGPIVVRDGYFSRPIGSTD [GB1-tagged WIR-peptide V1381Q]

The remaining lines, values behind:

Binder | Kd [µM]
PRDGEPVVTQLHPGPIVVRAGYFSRPIGSTD [GB1-tagged WIR-peptide D1393A] | 44.4
PRDGEPVVTQLHPGPQVVRDGYFSRPIGSTD [GB1-tagged WIR-peptide I1389Q] | 379
PRDGEPVVQQLHPGPIVVRDGYFSRPIGSTD [GB1-tagged WIR-peptide T1382Q] | 37.2

molecular target: T1, WIPI3-Δloop; assay: ITC; remark: another data set of the same source

Kd [µM] | Binder
14.1 | PRDGEPQVTQLHPGPIVVRDGYFSRPIGSTD [GB1-tagged WIR-peptide V1380Q]
75.9 | PRDGEPVATQLHPGPIVVRDGYFSRPIGSTD [GB1-tagged WIR-peptide V1381A]

The next lines start with the binder.

Binder | Kd [µM]
PRDGEPAVTQLHPGPIVVRDGYFSRPIGSTD [GB1-tagged WIR-peptide V1380A] | 36.9
PRDGEPVVAQLHPGPIVVRDGYFSRPIGSTD [GB1-tagged WIR-peptide T1382A] | 14.2
